This is an account of results in patent publication US20170022281A1 (AbbVie / Abbott, published 2017).

Numbering of substitutions follows the chain as printed. Where only a bound is given, the exact number is not on record here.

Assay [1] deals with T1, human PRLR (Biacore antigen) (human, UniProt P16471 25-234, limits assumed).
T1 construct: The construct injected over captured antibody is not described (a soluble form is likely); also called huPRLR
T1 sequence: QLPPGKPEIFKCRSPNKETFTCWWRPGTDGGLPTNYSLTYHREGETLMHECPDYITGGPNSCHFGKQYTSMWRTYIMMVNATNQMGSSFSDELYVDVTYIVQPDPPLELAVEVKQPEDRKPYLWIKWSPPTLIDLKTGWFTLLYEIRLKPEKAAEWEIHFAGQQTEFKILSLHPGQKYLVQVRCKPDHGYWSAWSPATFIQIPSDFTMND
As to the kind of experiment: SPR Biacore. In short, it runs like this: (§1)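 Association rate, dissociation rate and dissociation constant were measured by surface plasmon resonance on a Biacore instrument. PRLR antigen was tested at 600 nM, 66.67 nM and 7.41 nM, a 3-point, 9-fold dilution series. Constants came from a 1:1 binding model fit (local Rmax, mass-transport term included) in Biacore T200 Evaluation Software.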

Assay [2] has as its target T2, cyno PRLR ECD-his6 protein (cyno).
T2 chain: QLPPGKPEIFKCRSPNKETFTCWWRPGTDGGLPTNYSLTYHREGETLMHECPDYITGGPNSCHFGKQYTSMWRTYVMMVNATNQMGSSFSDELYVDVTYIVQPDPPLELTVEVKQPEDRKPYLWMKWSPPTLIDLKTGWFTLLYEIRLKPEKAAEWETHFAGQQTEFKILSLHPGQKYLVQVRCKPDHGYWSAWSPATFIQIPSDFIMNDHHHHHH
The assay can be described thus: ELISA on ECD. How it is done: (§2) Plates were blocked for 1 hour with Superblock (Pierce) and washed (3×) with wash buffer (lx PBS (pH 7.4), 0.05% Tween 20). ECD proteins were bound to the appropriate antibody (1 hour) in binding buffer (wash buffer plus 10% Superblock), washed (3×, wash buffer), and then incubated with serial dilutions of antibodies (1 hour) in binding buffer. After washing (3×, wash buffer), secondary antibodies conjugated to HRP were bound (1 hour) in binding buffer, washed (3×, wash buffer), and incubated with TMB substrate (Pierce) to develop signal for 3-5 minutes, stopped with 2N H₂SO₄ and scanned at […]. Curves were fit with GraphPad 5 (Prizm) and EC50's were determined with curve fitting function of GraphPad 5.

The target in assay [3] is T3, human PRLR ECD-Fc fusion protein (human, UniProt P16471 25-233).
T3 construct: not shown: Fc region (captured by goat anti-human Fc)
T3 sequence: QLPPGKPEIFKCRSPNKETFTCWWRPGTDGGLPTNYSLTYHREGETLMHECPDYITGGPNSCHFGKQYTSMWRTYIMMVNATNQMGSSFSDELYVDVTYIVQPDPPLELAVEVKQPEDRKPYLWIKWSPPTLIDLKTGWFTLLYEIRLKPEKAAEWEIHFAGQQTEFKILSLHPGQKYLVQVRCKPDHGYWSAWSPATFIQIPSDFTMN
As to the kind of experiment: ELISA on ECD. How it is done:
as §2

Assay [4] deals with T4, human PRLR on cells (human, UniProt P16471 25-622).
T4 sequence: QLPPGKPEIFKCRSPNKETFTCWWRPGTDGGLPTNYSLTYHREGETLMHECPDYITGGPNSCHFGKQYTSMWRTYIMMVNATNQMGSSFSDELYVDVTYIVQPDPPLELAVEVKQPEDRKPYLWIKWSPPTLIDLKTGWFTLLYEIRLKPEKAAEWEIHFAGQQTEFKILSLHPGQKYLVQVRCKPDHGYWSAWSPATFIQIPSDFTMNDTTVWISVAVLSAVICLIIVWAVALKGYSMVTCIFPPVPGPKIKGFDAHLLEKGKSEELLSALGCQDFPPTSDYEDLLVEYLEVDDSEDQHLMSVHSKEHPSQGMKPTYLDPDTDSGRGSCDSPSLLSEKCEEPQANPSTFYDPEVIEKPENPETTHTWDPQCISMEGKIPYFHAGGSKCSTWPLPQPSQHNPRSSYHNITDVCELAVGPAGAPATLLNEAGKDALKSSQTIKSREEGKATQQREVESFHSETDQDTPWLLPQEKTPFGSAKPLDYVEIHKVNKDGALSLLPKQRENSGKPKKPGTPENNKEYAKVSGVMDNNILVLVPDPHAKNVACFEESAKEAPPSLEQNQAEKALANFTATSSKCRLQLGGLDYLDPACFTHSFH
As to the kind of experiment: cell-based or functional assay.

The target in assay [5] is cyno PRLR on Baf3-cyPRLR cells (cyno). The assay can be described thus: cell-based or functional assay.
For assay [6], the target named is T5, mouse PRLR on Baf3-mPRLR cells (mouse, UniProt Q08501 20-608).
T5 sequence (looked up): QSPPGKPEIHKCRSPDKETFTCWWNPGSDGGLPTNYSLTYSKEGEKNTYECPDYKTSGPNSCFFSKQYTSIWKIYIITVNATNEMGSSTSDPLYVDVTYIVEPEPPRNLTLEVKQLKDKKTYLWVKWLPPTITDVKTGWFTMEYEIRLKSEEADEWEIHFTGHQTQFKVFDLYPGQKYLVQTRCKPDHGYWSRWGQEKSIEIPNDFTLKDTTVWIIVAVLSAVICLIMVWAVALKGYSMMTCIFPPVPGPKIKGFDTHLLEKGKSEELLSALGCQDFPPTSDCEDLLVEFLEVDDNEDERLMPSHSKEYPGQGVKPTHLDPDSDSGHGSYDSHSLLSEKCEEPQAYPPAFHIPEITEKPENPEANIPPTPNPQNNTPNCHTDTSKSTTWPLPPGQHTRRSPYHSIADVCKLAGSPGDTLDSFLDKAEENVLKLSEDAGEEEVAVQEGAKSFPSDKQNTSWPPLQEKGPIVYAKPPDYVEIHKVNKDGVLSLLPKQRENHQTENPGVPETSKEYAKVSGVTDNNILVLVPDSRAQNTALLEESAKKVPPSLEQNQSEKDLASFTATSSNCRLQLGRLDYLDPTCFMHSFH
As to the kind of experiment: cell-based or functional assay.

Assay [7] addresses T6, murine PRLR (Biacore antigen) (murine, UniProt Q08501 20-229, limits assumed).
T6 construct: also called muPRLR
T6 sequence (looked up): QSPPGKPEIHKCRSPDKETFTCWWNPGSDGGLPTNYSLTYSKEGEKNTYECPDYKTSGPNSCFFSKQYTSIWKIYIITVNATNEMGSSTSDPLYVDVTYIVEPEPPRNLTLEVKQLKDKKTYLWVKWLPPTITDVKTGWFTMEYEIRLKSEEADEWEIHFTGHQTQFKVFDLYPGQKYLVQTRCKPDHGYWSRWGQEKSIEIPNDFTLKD
The assay can be described thus: SPR Biacore. The procedure, abridged: as §1

In assay [8] the target is T7, mouse PRLR ECD-Fc fusion protein (mouse, UniProt Q08501 20-229).
T7 construct: extracellular domain; not shown: Fc region (captured by goat anti-human Fc)
T7 sequence (looked up): T6 sequence (looked up)
The assay can be described thus: ELISA on ECD. How it is done:
as §2

Assay [9] deals with T8, cyno PRLR (Biacore antigen) (cyno, UniProt A0A2K5WXK1 25-234).
T8 construct: also called cyPRLR
T8 sequence: T2 chain
The assay can be described thus: SPR Biacore. The procedure, abridged: as §1

B1: Ab17 (antibody, human IgG1, kappa, V domains shown)
VH: EVQLVQSGAEVKKPGSSVKVSCKASGYTFTTYWMHWVRQAPGQGLEWMGEIDPSDSYSNYNQKFKDRVTITADKSTSTAYMELSSLRSEDTAVYYCARNGGLGPAWFSYWGQGTLVTVSS
VL: EIVMTQSPATLSVSPGERATLSCKASQYVGTAVAWYQQKPGQSPRLLIYSASNRYTGVPARFSDSGSGTEFTLTISSLQSEDFAVYFCQQYSSYPWTFGGGTKVEIKR
notes: humanized from Ab6; G1; also called Ab1 HC.1 and Ab1 LC.2a
In [1], B1 showed a Kd of 1.06 nM, a koff of 0.00132 s⁻¹ and a kon of 1.25e+06 M⁻¹ s⁻¹. Also, in [2], the midpoint of the response, the EC50, lay at 0.0788 nM. In [3], this molecule yielded an EC50 of 0.0766 nM. Also, the “Baf3-hPRLR proliferation IC50” value in [4] turned out to be 0.14 µg/mL. Further, the “Baf3-cyPRLR proliferation IC50” value in assay [5] turned out to be 0.27 µg/mL. In assay [6], the “Baf3-mPRLR proliferation IC50” value is above 30 µg/mL.

B2: Ab20 (antibody, human IgG1, kappa, V domains shown)
VH: B1 VH with M48I, V68A, I70L, A72V
VL: B1 VL with S43A, V58I, D64G, F87Y
notes: humanized from Ab6; G1; also called Ab1 HC.1a and Ab1 LC.2
In turn, B2 yielded a Kd in assay [7] of 620 nM. In [1], this molecule had a Kd of 2 nM, a koff of 0.00208 s⁻¹ and a kon of 1.04e+06 M⁻¹ s⁻¹. For the same molecule, a half-maximal response in [2] (EC50) required 0.0711 nM. In [3], this molecule showed an EC50 of 0.0836 nM. Also, the “Baf3-hPRLR proliferation IC50” value in [4] was determined as 0.2 µg/mL. Further, in assay [5], the “Baf3-cyPRLR proliferation IC50” value is 0.5 µg/mL. Moreover, the “Baf3-mPRLR proliferation IC50” value in assay [6] is above 30 µg/mL.

B3: Ab46 (antibody, human IgG1, kappa, V domains shown)
VH: EVQLVQSGAEVKKPGASVKVSCKASGYTFTDYNIHWVRQAPGQGLEWMGYIYPNNDGTGYNQKFKSRVTMTTDTSTSTAYMELRSLRSDDTAVYYCARGDGNYVGDMDYWGQGTTVTVSS
VL: DIQMTQSPSSLSASVGDRVTITCRASENIYSYLAWYQQKPGKAPKLLVYNAKTLAEGVPSRFSGSGSGTDFTLTISSLQPEDFATYYCQHHYATPFTFGQGTKLEIKR
notes: humanized from Ab8; G1; also called Ab3 HC.1 and Ab3 LC.1b
Turning to B3, the EC50 stood at 0.0814 nM in assay [2], 0.0626 nM in assay [3] and 0.568 nM in [8]. Moreover, the “Baf3-hPRLR proliferation IC50” value in assay [4] worked out at 0.3 µg/mL. Besides, the “Baf3-cyPRLR proliferation IC50” value in assay [5] was 1.72 µg/mL. The “Baf3-mPRLR proliferation IC50” value in [6] was above 30 µg/mL.

B4: Ab45 (antibody, human IgG1, kappa, V domains shown)
VH: B3 VH
VL: B3 VL with A43P
notes: humanized from Ab8; G1; also called Ab3 HC.1 and Ab3 LC.1a
On to B4, for which the EC50 in [2] was 0.201 nM; in [3], 0.0684 nM; in assay [8], 0.978 nM. The “Baf3-hPRLR proliferation IC50” value in [4] came out at 0.31 µg/mL. Moreover, the “Baf3-cyPRLR proliferation IC50” value in assay [5] was 2.24 µg/mL. Besides, in assay [6], the “Baf3-mPRLR proliferation IC50” value is above 30 µg/mL.

B5: Ab35 (antibody, human IgG1, kappa)
heavy: not shown
light: DIVMTQTPLSLSVTPGQPASISCRSSQSLVHSNGNTYLHWYLQKPGQSPQLLIYKVSNRFSGVPDRFSGSGSGTDFTLKISRVEAEDVGVYYCSQSTHVPFTFGGGTKVEIKRTVAAPSVFIFPPSDEQLKSGTASVVCLLNNFYPREAKVQWKVDNALQSGNSQESVTEQDSKDSTYSLSSTLTLSKADYEKHKVYACEVTHQGLSSPVTKSFNRGEC
notes: humanized from Ab7; G1; also called Ab4 HC.1 and Ab4 LC.1
For B5, the Kd turned out to be 13.5 nM in assay [9], 1580 nM in [7] and 13.3 nM in assay [1]. The figures for the koff in [9], in assay [7] and in assay [1] were 0.00142 s⁻¹, 0.0785 s⁻¹ and 0.0016 s⁻¹, respectively. Moreover, the values for the kon in assay [9], in assay [7] and in assay [1] were 105000 M⁻¹ s⁻¹, 49800 M⁻¹ s⁻¹ and 120000 M⁻¹ s⁻¹, respectively. The EC50 in assay [2] was 0.32 nM; in assay [3], 2.5 nM. The “Baf3-hPRLR proliferation IC50” value in assay [4] came out at 0.38 µg/mL. Moreover, the “Baf3-cyPRLR proliferation IC50” value in assay [5] was 0.65 µg/mL. Moreover, in [6], the “Baf3-mPRLR proliferation IC50” value was above 30 µg/mL.

B6: Ab37 (antibody, human IgG1, kappa)
heavy: not shown
light: B5 light with I2V
notes: humanized from Ab7; G1; also called Ab4 HC.1 and Ab4 LC.1b
Consider B6, for which the Kd in assay [9] is 12.3 nM; in assay [7], 1670 nM; in assay [1], 12.3 nM. Besides, the koff in assay [9] was found to be 0.00132 s⁻¹; in [7], 0.0687 s⁻¹; in assay [1], 0.00146 s⁻¹. Moreover, the values for the kon in [9], in assay [7] and in assay [1] were 107000 M⁻¹ s⁻¹, 41100 M⁻¹ s⁻¹ and 119000 M⁻¹ s⁻¹, respectively. Also, the EC50 in assay [2] worked out at 0.186 nM; in assay [3] it was 0.184 nM. The “Baf3-hPRLR proliferation IC50” value in [4] is 0.43 µg/mL. Also, in assay [5], the “Baf3-cyPRLR proliferation IC50” value is 0.44 µg/mL. In assay [6], the “Baf3-mPRLR proliferation IC50” value is above 30 µg/mL.

B7: Ab38 (antibody, human IgG1, kappa)
heavy: not shown
light: B5 light
notes: humanized from Ab7; G1; also called Ab4 HC.1a and Ab4 LC.1
Regarding B7, the Kd was found to be 6.04 nM in assay [9], 994 nM in assay [7] and 6.22 nM in assay [1]. In addition, the koff in assay [9] was found to be 0.000756 s⁻¹; in [7] it was 0.0527 s⁻¹; in assay [1], 0.000879 s⁻¹. Moreover, the figures for the kon in assay [9], in [7] and in [1] were 125000 M⁻¹ s⁻¹, 53000 M⁻¹ s⁻¹ and 141000 M⁻¹ s⁻¹, respectively. For the same molecule, the values for the EC50 in assay [2] and in assay [3] were 0.264 nM and 0.346 nM, respectively. In addition, the “Baf3-hPRLR proliferation IC50” value in [4] was determined as 0.42 µg/mL. Moreover, in [5], the “Baf3-cyPRLR proliferation IC50” value came to 0.25 µg/mL. In addition, the “Baf3-mPRLR proliferation IC50” value in [6] was above 30 µg/mL.
